Legend:
[1] = target: T1, P. aeruginosa DHODase (PyrD, dihydroorotate dehydrogenase) (Pseudomonas aeruginosa, UniProt Q9HZF8); assay: DCIP-based colorimetric enzyme assay, […] min preincubation, dose-response; format: biochemical
T1 construct: pyrD open reading frame from PAO1 genomic DNA, in pET28a, recombinant Ni-NTA purified

[2] = substrate: O=C1C[C@@H](C(=O)O)NC(=O)N1; assay: steady-state enzyme kinetics (Km), DCIP colorimetric assay; format: biochemical, Pseudomonas aeruginosa; settings: FMN
[3] = substrate: COC1=C(OC)C(=O)C(C)=CC1=O; assay: steady-state enzyme kinetics (Km) as electron acceptor, DCIP colorimetric assay; format: biochemical, Pseudomonas aeruginosa; settings: FMN

Molecule	IC50 [1] [µM]	Km [2] [µM]	Km [3] [µM]
C[C@@H](NC(=O)CSc1nnnn1-c1ccc(O)cc1)c1ccc(-c2ccccc2)cc1 [compound 14]	41		
P. aeruginosa DHODase (PyrD, dihydroorotate dehydrogenase) (Pseudomonas aeruginosa PAO1) (protein, pyrD open reading frame from PAO1 genomic DNA, in pET28a, recombinant Ni-NTA purified) MYTLARQLLFKLSPETSHELSIDLIGAGGRLGLNRLLTPKPASLPVSVLGLEFPNPVGLAAGLDKNGDAIDGFGQLGFGFIEIGTVTPRPQPGNPRPRLFRLPQANAIINRMGFNNHGVDHLLARVRAAKYRGVLGINIGKNFDTPVERAVDDYLICLDKVYADASYVTVNVSSPNTPGLRSLQFGDSLKQLLEALRQRQEALALRHGRRVPLAIKIAPDMTDEETALVAAALVEAGMDAVIATNTTLGREGVEGLPHGDEAGGLSGAPVREKSTHTVKVLAGELGGRLPIIAAGGITEGAHAAEKIAAGASLVQIYSGFIYKGPALIREAVDAIAALPRRN		60.8	25.6
